Columns and labels:
ADAM10 = test: Ionomycin-induced ADAM10-mediated IL-6R ectodomain shedding in transiently transfected HEK293 cells, sIL-6R ELISA; format: cell-based, human; conditions: for sIL-6R shedding, Figure S4E, mean / sIL-6R shedding, Figure S4B, mean: normalised to PV Iono = 100; for sIL-6R shedding, Figure S4G, mean: normalised to PVQD Iono = 100
From the text: Analysis of IL-6R ectodomain shedding in transiently transfected HEK293 cells or stably transduced Ba/F3-gp130 cell lines by ADAM10 and ADAM17 has been described elsewhere. Analysis of IL-6R proteolysis by CG has been described previously.
The sandwich ELISA, which detects sIL-6R as well as ds-sIL-6R (4-11/Baf227 antibodies) and can be used to quantify total sIL-6R serum levels, was described previously. To specifically detect ds-sIL-6R (either recombinant or in human serum), a similar approach was used (ds6R/Baf227). Both sandwich ELISAs were performed with streptavidin-horseradish peroxidase (R&D Systems, Minneapolis, Minnesota, US) and the peroxidase substrate BM blue POD (Roche, Mannheim, Germany). The enzymatic reaction was stopped by addition of 1.8 M sulfuric acid, and the absorbance read at 450 nm on a Tecan rainbow reader (Tecan, Crailsheim, Germany).
Supplementary file pbio.2000080.s004.tif: S4 Fig Mutation of Val-356 is sufficient to block ADAM10-mediated proteolysis of the IL-6R and the Asp358Ala variant. (A) HEK293 cells were transiently transfected with Expression plasmids encoding the wildtype IL-6R (PV) or the double mutants (IE, DG) as indicated. Cells were either treated with 1 μM ionomycin for 1 h or DMSO as vehicle control. sIL-6R was precipitated from the supernatant with concanavalin A-covered Sepharose beads, and cells were lysed. Both were analyzed via Western blot, and β-actin served as loading control. One out of three experiments with similar outcome is shown. (B, C) The experiment was performed as described under (A), but sIL-6R generation was analyzed via ELISA. In (B), the amount of sIL-6R generated after ionomycin-stimulation of the wildtype IL-6R (PV) was set to 100%, and all other values were calculated accordingly. In (C), the amount of sIL-6R without stimulation was considered as constitutive shedding and set to 1 and the increase of sIL-6R was calculated. Data shown are the mean ± SD from at least three independent experiments (*p<0.05, ns = no significant difference). (D-F) HEK293 cells were transiently transfected with expression plasmids encoding the wildtype IL-6R (PV) or the single mutants (DV, IV, PE, PG) as indicated. The experiments were performed as described in (A) to (C). (G) ADAM10-mediated proteolysis of the IL-6R variants depicted in Fig 4I was analyzed as described in (B). (H) Equal numbers of Ba/F3-gp130-IL-6R_DG cells were incubated for 48 h with increasing amounts (0–100 ng/ml) of either IL-6 or Hyper-IL-6. One representative experiment out of three performed is shown (mean ± SD, biological triplicates). (TIF) Click here for additional data file.

[1] = tested on: Ba/F3-gp130-hIL-6R and Ba/F3-gp130-hIL-6R-4N cells; test: IL-6R internalization assay (cell-surface turnover, flow cytometry); format: cell-based; conditions: for IL-6R remaining at the cell surface (0 min = 100), mean: mean of 3
Procedure: Fig 6 N- and O-linked glycosylation are dispensable for intracellular transport and signaling of the IL-6R. (A–G) Equal numbers of Ba/F3-gp130 cells were incubated for 48 h with increasing amounts (0–100 ng/ml) of either IL-6 or Hyper-IL-6. The stably transduced IL-6R variant is indicated above the diagram. One representative experiment out of three performed is shown (mean ± SD, biological triplicates). (H) Equal numbers of Ba/F3-gp130-hIL-6R and Ba/F3-gp130-hIL-6R-4N cells were labeled with an anti-IL-6R antibody and incubated at 37°C for the indicated time periods. The remaining cell-surface expression of the IL-6R was analyzed via flow cytometry. Data shown are the mean ± SD from three independent experiments.
In order to analyze internalization of the IL-6R, 1 x 10^7 cells were washed in PBS, seeded onto a 10 cm dish in serum-free DMEM, and starved for 2 h at 37°C. Afterwards, cells were again washed with PBS, and the IL-6R was labeled with the 4–11 antibody diluted in FACS buffer (1% BSA in PBS). After 1 h incubation on ice, cells were washed and resuspended in 10 ml serum-free DMEM, seeded onto a 10 cm dish, and shifted back to 37°C. At the time points indicated (0–180 min), 1 ml of the cell suspension was taken from the dish, transferred into a 1.5 ml reaction tube, and kept on ice to inhibit further internalization of the IL-6R. After obtaining the last sample, the cells were washed in cold FACS buffer, and the remaining IL-6R on the cell surface was stained with an APC-conjugated anti-mouse mAb. The cells were washed again and analyzed by flow cytometry using the BD Biosciences FACS Canto II (Becton-Dickinson, Heidelberg, Germany).

B1: PV: wild-type human IL-6R, cleavage site Pro-355/Val-356 (protein)
chain: LAPRRCPAQEVARGVLTSLPGDSVTLTCPGVEPEDNATVHWVLRKPAAGSHPSRWAGMGRRLLLRSVQLHDSGNYSCYRAGRPAGTVHLLVDVPPEEPQLSCFRKSPLSNVVCEWGPRSTPSLTTKAVLLVRKFQNSPAEDFQEPCQYSQESQKFSCQLAVPEGDSSFYIVSMCVASSVGSKFSKTQTFQGCGILQPDPPANITVTAVARNPRWLSVTWQDPHSWNSSFYRLRFELRYRAERSKTFTTWMVKDLQHHCVIHDAWSGLRHVVQLRAQEEFGQGEWSEWSPEAMGTPWTESRSPPAENEVSTPMQALTTNKDDDNILFRDSANATSLPVQDSSSVPLPTFLVAGGSLAFGTLLCIAIVLRFKKTWKLRALKEGKTSMHPPYSLGQLVPERPRPTPVLVPLISPPVSPSSLGSDNTSSHNRPDARDPRSPYDISNTDYFFPR
modifications: N-linked glycans at Asn-55, Asn-93, Asn-221, Asn-245 and Asn-350, O-linked glycan at Thr-352 (mapped on sIL-6R shed from transfected HEK293 cells)
- ratio of sIL-6R Iono / DMSO, Figure S4F, mean (ADAM10; mean of n = 3): 3.48
- ratio of sIL-6R Iono / DMSO, Figure S4C, mean (ADAM10; mean of replicates): 2.623
- sIL-6R shedding, Figure S4E, mean (ADAM10; treatment DMSO, mean of n = 3): 35.7033
- sIL-6R shedding, Figure S4B, mean (ADAM10; treatment DMSO, mean of replicates): 40.5833
- sIL-6R shedding, Figure S4G, mean (ADAM10; treatment DMSO, mean of n = 3): 48.1333
- sIL-6R shedding, Figure S4E, mean (ADAM10; treatment Iono, mean of n = 3): 100
- sIL-6R shedding, Figure S4B, mean (ADAM10; treatment Iono, mean of replicates): 100
- sIL-6R shedding, Figure S4G, mean (ADAM10; treatment Iono, mean of n = 3): 100
- IL-6R remaining at the cell surface (0 min = 100), mean ([1]; block 1 (wt), 15 min): 79.6667
- IL-6R remaining at the cell surface (0 min = 100), mean ([1]; block 1 (wt), 30 min): 59
- IL-6R remaining at the cell surface (0 min = 100), mean ([1]; block 1 (wt), 60 min): 46
- IL-6R remaining at the cell surface (0 min = 100), mean ([1]; block 1 (wt), 90 min): 35
- IL-6R remaining at the cell surface (0 min = 100), mean ([1]; block 1 (wt), 120 min): 23.6667
- IL-6R remaining at the cell surface (0 min = 100), mean ([1]; block 1 (wt), 150 min): 16.6667
- IL-6R remaining at the cell surface (0 min = 100), mean ([1]; block 1 (wt), 180 min): 13.3333
- IL-6R remaining at the cell surface (0 min = 100), mean ([1]; block 2, 15 min): 85.6667
- IL-6R remaining at the cell surface (0 min = 100), mean ([1]; block 2, 30 min): 65
- IL-6R remaining at the cell surface (0 min = 100), mean ([1]; block 2, 60 min): 49.3333
- IL-6R remaining at the cell surface (0 min = 100), mean ([1]; block 2, 90 min): 45
- IL-6R remaining at the cell surface (0 min = 100), mean ([1]; block 2, 120 min): 35.6667
- IL-6R remaining at the cell surface (0 min = 100), mean ([1]; block 2, 150 min): 27.6667
- IL-6R remaining at the cell surface (0 min = 100), mean ([1]; block 2, 180 min): 24.3333
- t1/2 of IL-6R at the cell surface ([1]; pulse-chase with 4-11 antibody, 37°C, flow cytometry, mean ± SD, n = 3): 44.1 ± 8.1 min
